Test results: the RNAGym collection of RNA variant scans (doi:10.7554/elife.80360)

B1: HDV Ribozyme (parent)
chain: GGCCGGCAUGGUCCCAGCCUCCUCGCUGGCGCCGGCUGGGCAACAUUCCGAGGGGACCGUCCCCUCGGUAAUGGCGAAUGGGACCCA

Variants of: B1
Test: self-cleavage, relative activity (ratio to wild type); higher = more cleavage; co-transcriptional

Variant | self-cleavage
G5A G55A | 0.237
G6U A16C | 0
G10C C63G | 0.852
C24G G25A | 0.0959
C7U G54U | 1
C26A A70G | 1.11
U60A G81U | 0.151
U9A C63A | 1.25
C57U A87C | 1.17
G38U G74A | 0.0248
C19U G50U | 0.159
C22A G50A | 0.235
C22U A42C | 0.122
G2A U9A | 0.0773
C24U G67C | 0.78
G29U G74U | 0.0963
G35A G59C | 0.61
U37G G39C | 0.185
C13U A51U | 0.802
C36G A70U | 0.119
G5C C18U | 0.142
G38U C62G | 0.0831
G29A A83C | 0.148
G6C A43G | 0

Variant | self-cleavage
G55A C64U | 1.04
G31U U46A | 0.0755
C32U G50A | 0.862
G1U C86A | 0.32
G25C A87C | 0.07
C21A U27A | 0.0504
A70G U79A | 0.77
C30A C75G | 0
C14G C58A | 0.639
C36G G59U | 0.199
G1U G54A | 0.277
G28A C84A | 0.151
C24U C58G | 0.811
C32U G53A | 1.01
G35A C41G | 0.222
C48A G54C | 1.17
G17U G67A | 0.564
G6A G29C | 0.0326
C7A C48U | 0.542
U12G A87U | 0.813
G1U G5A | 0.445
U12G U60A | 0.68
G2C A77U | 0.119
C32U C44G | 0.374

Variant | self-cleavage
C49G C86G | 0.587
C44G G55A | 0.787
G2A G5U | 0.0453
U27A U79G | 0.831
A51U C66U | 1.07
C49U A56U | 0.973
G25U C26U | 0.0415
C14U A51C | 1.19
G25U G34C | 0.0396
C62G A78C | 0
U27G C63G | 0.532
C21U G29A | 0.0683
C18G G52U | 0.203
C3U C64G | 0.915
G17A C19G | 0
C4G G52C | 0.383
C64G A87C | 0.778
A51C G54C | 0.787
G10A U47G | 0.853
G53C G76C | 0.991
C7G G35C | 0.237
C4G G35U | 0.0875
C19U U79A | 0.0396
U9G G59C | 1.06

Variant | self-cleavage
C30A C84G | 0
G73C U79A | 0.302
G11U G67U | 0.168
U46C G68C | 0.739
C19G C26A | 0.104
G50U U65C | 0.791
G39A G40U | 0.57
C15G A42U | 0.0504
G40A A56U | 1.02
C3G C66U | 0.715
C15U C61A | 1.27
G1U C30A | 0.426
G29A C63A | 0.147
G31C C48A | 0.449
U37C G59A | 1.1
A77C G80C | 0.179
U69G U79G | 0.895
G28U U37A | 0.0773
C4U C64U | 0.695
U37C G53A | 1.04
G67U A83G | 0.412
C14G A83U | 0.289
U20C G34U | 0.086
G29C A78C | 0.0519

Variant | self-cleavage
G38U G76C | 0.228
G28A C33U | 0.0234
U46C C63A | 0.718
U9G C41G | 0.831
G35C A42G | 0.192
C30G A42C | 0.151
C48U U72C | 0.554
G6U G54A | 0.522
G38A G54C | 0.237
G2U G73A | 0.0484
C21G U60C | 0.0489
C36G A83C | 0.0831
U69G G76U | 1.01
A42U C48G | 0.646
C3G A71U | 0.502
C15A C58G | 1.02
A56U G82A | 0.543
C4A A16C | 0.0339
C13A U46G | 0.0594
C22U U37C | 0.415
G35C G67A | 0.148
C49G C57U | 0.945
G81C G82A | 0.0665
C19U G73U | 0.12

Variant | self-cleavage
G39U C57A | 0.941
G31A A56C | 0.445
G31U U65C | 0.339
C63U G73C | 0.618
C24U G35C | 0.0339
C7G C24U | 0.0692
U23C G73U | 0.148
C14A C24A | 0.383
G6U U72A | 0.0665
C24A C41G | 0.536
C22G C63G | 0
U46G G52A | 0.297
A78U A87U | 0.243
C33U A45U | 0.57
C49A G54U | 0.734
C14G C86U | 1.07
A43U C58U | 0.462
G54A C58A | 0.773
C15G A51U | 0.475
C13A G35C | 0.0339
C30G U69G | 0
C22G G40A | 0
G39A G55U | 0.356
C41U C48U | 1.02

Variant | self-cleavage
C21A C85U | 0.157
C4A A70G | 0.189
U47A U65C | 0.8
C4G G68U | 0.227
G76A C84U | 1.05
G50C C84A | 0.743
A51C A78C | 0.277
C24A A56U | 0.872
G59U C63G | 0.767
C13G U72G | 0.0923
C85A A87G | 0.875
U23G U79G | 0.192
C3A C30G | 0.0166
G39U C62A | 0.623
G6A G76U | 0.881
C13A A78U | 0.0449
G35U C44U | 0.193
C14G G25A | 0.0437
G17A G73A | 0.34
C19A C85A | 0.0963
U79A C85A | 0.724
C13A C63G | 0.38
C4A G82A | 0.0272
G67U C85G | 0.831

Variant | self-cleavage
G52A C84U | 0.691
U12G G34C | 0.172
G35U G53A | 0.42
A45U G53C | 0.778
U9G C85A | 1.02
C22U G80C | 0.0712
A56C A70C | 1.12
C48G C63G | 0.306
A16U G38A | 0.113
G54A A77C | 0.383
G1U C48G | 0.243
U27G C49U | 0.957
G25U G54C | 0.122
U9A G17A | 0.906
C19A U47G | 0.0361
A16U U20A | 0.0875
G53A U65G | 0.708
U37G U79A | 0
C19A A78C | 0.0248
G28U G40C | 0.215
C15U C63U | 0.914
C3A U60G | 0.471
A8C G82U | 0.116
C14G G59A | 0.962

Variant | self-cleavage
C18U G59U | 0.67
C3A C24G | 0.089
U12G U27C | 0.776
G35C A43U | 0.0386
C24G G35C | 0.0332
G1U U27C | 0.26
U12C C86A | 0.864
A45G C63G | 0.739
G28C C85G | 0.111
C3G C61U | 0.729
G5C G81A | 0.104
A71G G80C | 0.271
U20A C21A | 0.0536
G5U C15A | 0.0831
A45U C57A | 0.906
A16G C21A | 0
G6C U65A | 0.104
G55U C64G | 0.781
G34C A78G | 0.0755
C24A C62A | 0.946
G2U G40U | 0.0132
C30A G55U | 0.458
G50C C85U | 1.09
G53C A56C | 1.14

Variant | self-cleavage
C14A U20C | 0.111
U72A C84G | 0.213
C62A C75U | 0.108
U9G G29U | 0
G1A C7A | 0.191
G10C U12C | 0.0978
C24U G35U | 0.131
G10C U47G | 1.35
G53A A56U | 0.873
G5A G40A | 0.0992
G1C C48U | 0.227
C44A G76C | 0.614
U37G C44U | 0.119
A8C G59U | 0.804
G10A C57U | 0.797
U23A A51U | 0.923
C49A G82U | 0.437
A16G G28U | 0.0519
A51C G68C | 0.762
G25C G53C | 0.356
C33U G76A | 0.978
C36U A51G | 0.652
A45U U79G | 0.506
C4U G54A | 0.791

Variant | self-cleavage
G55A C57U | 0.925
C64A C66U | 0.567
A43U A77C | 0.0519
G2U A71G | 0.141
A45U A83G | 0.847
C19U G35U | 0.0519
C57U G67U | 0.974
C24A G74C | 0.0326
G2A U37A | 0.0755
U23G A83U | 0.107
C19U A83C | 0.217
C64A C86U | 0.886
G1C G80C | 0.0475
A43G G73U | 0.0755
A16C C30G | 0.128
C13G G82A | 0.0519
C44G A70U | 0.804
C49G A71U | 1.04
U9C C33A | 0.489
C13G A43C | 0.262
C19G A43G | 0.155
A8U U27G | 0.906
C13G A42U | 0.0811
G55U G68A | 1.03

Variant | self-cleavage
A43U U65G | 0.302
G29U G73U | 0.095
C3U C44U | 0.378
G17A C75A | 0.128
A77G C85U | 1.04
C14A A16U | 0.923
G5U G73U | 0.122
C21A G52A | 0.132
U12C G67C | 0.256
U69C G81A | 0.323
A51G U72A | 0.665
C21A C58G | 0.128
G17A C64G | 0.496
C61G A70U | 1.04
G34C A70U | 0.0378
C18U G68C | 0.544
G17U C41G | 0.0462
A8U G34U | 0.142
U12A C62U | 0.252
C13U G74A | 0.131
C30A A56C | 0.875
G5U G59U | 0.633
U9C G67A | 1.12
U20A U37C | 0

Variant | self-cleavage
G1U G31A | 0.364
G34U C44A | 0.0545
A42U A87G | 0.389
G73A A78U | 0.106
C58U G73C | 0.608
A42G G55A | 0.485
G39A U46C | 0.181
C24G U60A | 0.264
A77G G82A | 0.364
C48U G67A | 0.818
A83C C84U | 0.582
C4G C49A | 0.346
U12G U72G | 0.128
C15U C84U | 0.962
C26G C41U | 0.76
U37A C61A | 0.138
G34U G81C | 0.144
C75A G82C | 0.188
A45C C85G | 0.609
G17U C30U | 0.716
G2A C19A | 0.0292
G25C A78U | 0.131
G29U G53U | 0.0213
G6C G29U | 0.111

Variant | self-cleavage
C58G A87C | 0.919
A45G G59A | 1.06
U47G G52U | 0.877
A45C C61G | 0.6
C3U U72C | 0.471
G35A G53A | 0.411
C33U G53U | 0.916
G50U G74C | 0.214
U20C C84A | 0.166
A42G G67U | 0.565
G2A C36A | 0.228
A16G G55A | 0.943
G29U A78U | 0.0287
U27C C61U | 0.978
G31C G80C | 0.0615
A78U C84U | 0.252
C7A U20A | 0
U12A G80A | 0.108
C13U C32G | 0.101
A16C G68U | 0.697
C26A C48A | 0.941
C3G A77C | 0.233
